Patent US20250289892A1 (TAIZHOU ENZE MEDICAL CENTER GROUP, published 2025)

What was measured:
HLA-G3 standard protein = molecular target: T1, HLA-G3 standard protein (human, UniProt P17693-3 25-154, limits assumed); assay: immunoblotting of standard proteins after denaturing PAGE
T1 construct: Standard protein run on denaturing PAGE for immunoblotting

HLA-G2 standard protein = molecular target: T2, HLA-G2 standard protein (human, UniProt P17693-2 25-246, limits assumed); assay: as above
T2 construct: Standard protein run on denaturing PAGE for immunoblotting

HLA-G7 standard protein = molecular target: T3, HLA-G7 standard protein (human, UniProt P17693-7 25-116, limits assumed); assay: as above
T3 construct: Standard protein run on denaturing PAGE for immunoblotting

HLA-G6 standard protein = molecular target: T4, HLA-G6 standard protein (human, UniProt P17693-6 25-227, limits assumed); assay: as above
T4 construct: Standard protein run on denaturing PAGE for immunoblotting

[1] = molecular target: T5, antigenic peptide of amino acid sequence at positions 106-126 of a heavy chain of HLA-G molecules … (human); assay: ELISA, peptide coated at 2 ug/ml, antibody titrated; logistic fit
T5 construct: Synthesized peptide, coated on ELISA plates at 2 ug/ml; also called immunogen
T5 peptide: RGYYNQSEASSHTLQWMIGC

[2] = molecular target: T5, antigenic peptide of amino acid …; assay: ELISA, peptide coated at 2 ug/ml, antibody stock 3.0 mg/mL titrated

B1: monoclonal antibody (YWHG-4) against HLA-G isoforms (HLA-G1, HLA-G4, HLA-G5) (antibody, V domains shown)
VH: VQLQQSGAEVVRPGTSVKVSCKASGYASTNYLVEWIKQRPGQGLEWIGVINPGSGRIYYSEKFKGKTTLTADKSSSNAYMQLSSLTSDDSAVYFCARHYGNSAWFAYWGQGTLVTVSA
VL: DIVITQDELSLPVSLGDQAAISCRSSQSIVHSNGNTYLEWYLQKPGQSPKLLIYKVSNRFSGVPDRFRGSGSGTDFTLKISRVEAEDLGVYYCFQASHVPYTFGGGTKLEIKR
notes: FITC-labeled in the flow cytometry; also called hybridoma CCTCC NO: 2021204
B1: no binding (HLA-G3 standard protein); no binding (HLA-G2 standard protein); no binding (HLA-G7 standard protein). The binding result (HLA-G6 standard protein) was “no binding”, the Ka [1] was 9.87e+09 M⁻¹ and the “antibody dilution factor corresponding to 1/2 OD value” [2] was 197000 fold dilution.
